T1: Spo11 (subunit of the purified S. cerevisiae Spo11 core complex) (S. cerevisiae, UniProt P23179 1-392)
T1 construct: Spo11, S. cerevisiae
T1 sequence: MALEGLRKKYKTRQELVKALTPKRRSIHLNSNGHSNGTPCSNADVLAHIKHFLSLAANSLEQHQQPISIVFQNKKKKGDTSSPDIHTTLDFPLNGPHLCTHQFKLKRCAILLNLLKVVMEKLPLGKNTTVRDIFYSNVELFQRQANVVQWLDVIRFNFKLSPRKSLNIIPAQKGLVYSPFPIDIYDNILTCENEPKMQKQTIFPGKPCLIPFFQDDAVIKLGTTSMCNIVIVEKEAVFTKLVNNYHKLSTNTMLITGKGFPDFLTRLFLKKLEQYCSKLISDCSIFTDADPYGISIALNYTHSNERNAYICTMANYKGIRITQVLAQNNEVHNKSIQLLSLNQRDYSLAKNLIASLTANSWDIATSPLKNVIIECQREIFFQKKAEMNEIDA

B1: Rec102 (subunit of the purified S. cerevisiae Spo11 core complex) (natural protein)
chain: MARDITFLTVFLESCGAVNNDEAGKLLSAWTSTVRIEGPESTDSNSLYIPLLPPGMLKIKLNFKMNDRLVTEEQELFTKLREIVGSSIRFWEEQLFYQVQDVSTIENHVILSLKCTILTDAQISTFISKPRELHTHAKGYPEIYYLSELSTTVNFFSKEGNYVEISQVIPHFNEYFSSLIVSQLEFEYPMVFSMISRLRLKWQQSSLAPISYALTSNSVLLPIMLNMIAQDKSSTTAYQILCRRRGPPIQNFQIFSLPAVTYNK
notes: Rec102, S. cerevisiae

How the values were obtained:
[1] = target: T1, Spo11 (subunit of the purified S. …); assay: cryo-EM structure; core complex (subunits co-expressed and co-purified, ~0.2 mg/ml) incubated with hairpin DNA (3.7 Å) or gapped DNA (3.3 Å) at 1:2 protein:DNA in 25 mM HEPES-NaOH pH 7.5, 150 mM NaCl, 5 mM MgCl2, 2 mM DTT, 2% glycerol, 1 h on ice; details: both partners purified
[2] = target: B1; assay: as above; details: both partners purified

Row | Binder | stoichiometry N [1] | stoichiometry N [2]
1 | B1 | 1 | –
2 | Rec104 (subunit of the purified S. cerevisiae Spo11 core complex) (natural protein, Rec104, S. cerevisiae; 182 residues as printed, of which only 9-58 are visible in the structure) MSIEEEDTNKITCTQDFLHQYFVTERVSIQFGLNNKTVKRINKDEFDKAVNCIMSWTNYPKPGLKRTASTYLLSNSFKKSATVSLPFILGDPVCMPKRVESNNNDTCLLYSDTLYDDPLIQRNDQAGDEIEDEFSFTLLRSEVNEIRPISSSSTAQILQSDYSALMYERQASNGSIFQFSSP | 1 | 1
3 | Ski8 (subunit of the purified S. cerevisiae Spo11 core complex) (natural protein, Ski8, S. cerevisiae) MSKVFIATANAGKAHDADIFSVSACNSFTVSCSGDGYLKVWDNKLLDNENPKDKSYSHFVHKSGLHHVDVLQAIERDAFELCLVATTSFSGDLLFYRITREDETKKVIFEKLDLLDSDMKKHSFWALKWGASNDRLLSHRLVATDVKGTTYIWKFHPFADESNSLTLNWSPTLELQGTVESPMTPSQFATSVDISERGLIATGFNNGTVQISELSTLRPLYNFESQHSMINNSNSIRSVKFSPQGSLLAIAHDSNSFGCITLYETEFGERIGSLSVPTHSSQASLGEFAHSSWVMSLSFNDSGETLCSAGWDGKLRFWDVKTKERITTLNMHCDDIEIEEDILAVDEHGDSLAEPGVFDVKFLKKGWRSGMGADLNESLCCVCLDRSIRWFREAGGK | 1 | –

From article PMC11746154, “Cryo-EM structures of the Spo11 core complex bound to DNA” (Nature Structural & Molecular Biology, 2023)
